The results in this text go back to paper PMC13189624, “MORC2 mediates transcriptional regulation through liquid-liquid phase separation” (eLife, 2026).

To fix the notation:
B1: selenomethionine MORC2 CC3 domain (residues 901-1003), as crystallised (domain or fragment, human, UniProt Q9Y6X9 901-1003, looked up)
chain: LSTNHETIDLLVQILRNCLRYFLPPSFPISKKQLSAMNSDELISFPLKEYFKQYEVGLQNLCNSYQSRADSRAKASEESLRTSERKLRETEEKLQKLRTNIVA
modifications: selenomethionine (SeMet) in place of methionine
notes: MORC2, human, UniProt Q9Y6X9, residues 901-1003; The methods say 'MORC2 CC3 fused with a GPGS linker'; also called CC3 dimer; source: E. coli B834 in M9 medium with selenomethionine, purified (SEC, Superdex 75)
B2: full-length human MORC2 (MORC2FL, residues 1-1032) (natural protein, UniProt Q9Y6X9 1-1032, looked up)
chain: MAFTNYSSLNRAQLTFEYLHTNSTTHEFLFGALAELVDNARDADATRIDIYAERREDLRGGFMLCFLDDGAGMDPSDAASVIQFGKSAKRTPESTQIGQYGNGLKSGSMRIGKDFILFTKKEDTMTCLFLSRTFHEEEGIDEVIVPLPTWNARTREPVTDNVEKFAIETELIYKYSPFRTEEEVMTQFMKIPGDSGTLVIIFNLKLMDNGEPELDIISNPRDIQMAETSPEGTKPERRSFRAYAAVLYIDPRMRIFIHGHKVQTKRLSCCLYKPRMYKYTSSRFKTRAEQEVKKAEHVARIAEEKAREAESKARTLEVRLGGDLTRDSRVMLRQVQNRAITLRREADVKKRIKEAKQRALKEPKELNFVFGVNIEHRDLDGMFIYNCSRLIKMYEKVGPQLEGGMACGGVVGVVDVPYLVLEPTHNKQDFADAKEYRHLLRAMGEHLAQYWKDIAIAQRGIIKFWDEFGYLSANWNQPPSSELRYKRRRAMEIPTTIQCDLCLKWRTLPFQLSSVEKDYPDTWVCSMNPDPEQDRCEASEQKQKVPLGTFRKDMKTQEEKQKQLTEKIRQQQEKLEALQKTTPIRSQADLKKLPLEVTTRPSTEEPVRRPQRPRSPPLPAVIRNAPSRPPSLPTPRPASQPRKAPVISSTPKLPALAAREEASTSRLLQPPEAPRKPANTLVKTASRPAPLVQQLSPSLLPNSKSPREVPSPKVIKTPVVKKTESPIKLSPATPSRKRSVAVSDEEEVEEEAERRKERCKRGRFVVKEEKKDSNELSDSAGEEDSADLKRAQKDKGLHVEVRVNREWYTGRVTAVEVGKHVVRWKVKFDYVPTDTTPRDRWVEKGSEDVRLMKPPSPEHQSLDTQQEGGEEEVGPVAQQAIAVAEPSTSECLRIEPDTTALSTNHETIDLLVQILRNCLRYFLPPSFPISKKQLSAMNSDELISFPLKEYFKQYEVGLQNLCNSYQSRADSRAKASEESLRTSERKLRETEEKLQKLRTNIVALLQKVQEDIDINTDDELDAYIEDLITKGD
notes: MORC2, human, UniProt Q9Y6X9, residues 1-1032; cDNA amplified from a HeLa cDNA library; The plasmid is called MORC2-6xHis; Construct details are in Supplementary file 2; source: HEK293F, transiently transfected, purified (Ni-NTA, Superose 6 gel filtration), nucleic acid-free
B3: MORC2 fragment 744-1032 (domain or fragment, human, UniProt Q9Y6X9 744-1032, looked up)
chain: DEEEVEEEAERRKERCKRGRFVVKEEKKDSNELSDSAGEEDSADLKRAQKDKGLHVEVRVNREWYTGRVTAVEVGKHVVRWKVKFDYVPTDTTPRDRWVEKGSEDVRLMKPPSPEHQSLDTQQEGGEEEVGPVAQQAIAVAEPSTSECLRIEPDTTALSTNHETIDLLVQILRNCLRYFLPPSFPISKKQLSAMNSDELISFPLKEYFKQYEVGLQNLCNSYQSRADSRAKASEESLRTSERKLRETEEKLQKLRTNIVALLQKVQEDIDINTDDELDAYIEDLITKGD
notes: MORC2, human, UniProt Q9Y6X9, residues 744-1032; The expression system and tags are in Supplementary file 2
B4: Trx-tagged MORC2 901-1032 Y921A (domain or fragment, human, UniProt Q9Y6X9 901-1032, looked up)
chain: LSTNHETIDLLVQILRNCLRAFLPPSFPISKKQLSAMNSDELISFPLKEYFKQYEVGLQNLCNSYQSRADSRAKASEESLRTSERKLRETEEKLQKLRTNIVALLQKVQEDIDINTDDELDAYIEDLITKGD
notes: MORC2, human, UniProt Q9Y6X9, residues 901-1032 with Y921A; the same legend also prints residue 921 as F921; source: E. coli, purified
B5: Trx-tagged MORC2 901-1032 F951Q (domain or fragment, human, UniProt Q9Y6X9 901-1032, looked up)
chain: LSTNHETIDLLVQILRNCLRYFLPPSFPISKKQLSAMNSDELISFPLKEYQKQYEVGLQNLCNSYQSRADSRAKASEESLRTSERKLRETEEKLQKLRTNIVALLQKVQEDIDINTDDELDAYIEDLITKGD
notes: MORC2, human, UniProt Q9Y6X9, residues 901-1032 with F951Q; source: E. coli, purified
B6: wild-type MORC2 901-1032 with Trx-tag (domain or fragment, human, UniProt Q9Y6X9 901-1032, looked up)
chain: LSTNHETIDLLVQILRNCLRYFLPPSFPISKKQLSAMNSDELISFPLKEYFKQYEVGLQNLCNSYQSRADSRAKASEESLRTSERKLRETEEKLQKLRTNIVALLQKVQEDIDINTDDELDAYIEDLITKGD
notes: MORC2, human, UniProt Q9Y6X9, residues 901-1032; Cloned in a modified pET32m vector with Trx-tag (14 kDa); also called WT MORC2^901-1032 (with Trx-tag); WT CC3-IBD; source: E. coli, purified (Ni-NTA, SEC)
B7: Trx-tagged MORC2 901-1032 F922Q (domain or fragment, human, UniProt Q9Y6X9 901-1032, looked up)
chain: LSTNHETIDLLVQILRNCLRYQLPPSFPISKKQLSAMNSDELISFPLKEYFKQYEVGLQNLCNSYQSRADSRAKASEESLRTSERKLRETEEKLQKLRTNIVALLQKVQEDIDINTDDELDAYIEDLITKGD
notes: MORC2, human, UniProt Q9Y6X9, residues 901-1032 with F922Q; source: E. coli, purified
B8: Trx-tagged MORC2 901-1032 L911Q (domain or fragment, human, UniProt Q9Y6X9 901-1032, looked up)
chain: LSTNHETIDLQVQILRNCLRYFLPPSFPISKKQLSAMNSDELISFPLKEYFKQYEVGLQNLCNSYQSRADSRAKASEESLRTSERKLRETEEKLQKLRTNIVALLQKVQEDIDINTDDELDAYIEDLITKGD
notes: MORC2, human, UniProt Q9Y6X9, residues 901-1032 with L911Q; source: E. coli, purified
B9: Trx-tagged MORC2 901-1032 I908Q (domain or fragment, human, UniProt Q9Y6X9 901-1032, looked up)
chain: LSTNHETQDLLVQILRNCLRYFLPPSFPISKKQLSAMNSDELISFPLKEYFKQYEVGLQNLCNSYQSRADSRAKASEESLRTSERKLRETEEKLQKLRTNIVALLQKVQEDIDINTDDELDAYIEDLITKGD
notes: MORC2, human, UniProt Q9Y6X9, residues 901-1032 with I908Q; source: E. coli, purified
B10: Trx-tagged MORC2 901-1032 L915Q (domain or fragment, human, UniProt Q9Y6X9 901-1032, looked up)
chain: LSTNHETIDLLVQIQRNCLRYFLPPSFPISKKQLSAMNSDELISFPLKEYFKQYEVGLQNLCNSYQSRADSRAKASEESLRTSERKLRETEEKLQKLRTNIVALLQKVQEDIDINTDDELDAYIEDLITKGD
notes: MORC2, human, UniProt Q9Y6X9, residues 901-1032 with L915Q; source: E. coli, purified
B11: Trx-tagged MORC2 901-1032 Y954A (domain or fragment, human, UniProt Q9Y6X9 901-1032, looked up)
chain: LSTNHETIDLLVQILRNCLRYFLPPSFPISKKQLSAMNSDELISFPLKEYFKQAEVGLQNLCNSYQSRADSRAKASEESLRTSERKLRETEEKLQKLRTNIVALLQKVQEDIDINTDDELDAYIEDLITKGD
notes: MORC2, human, UniProt Q9Y6X9, residues 901-1032 with Y954A; source: E. coli, purified
B12: MORC2 CC3-IBD (residues 901-1032) (domain or fragment, human, UniProt Q9Y6X9 901-1032, looked up)
chain: LSTNHETIDLLVQILRNCLRYFLPPSFPISKKQLSAMNSDELISFPLKEYFKQYEVGLQNLCNSYQSRADSRAKASEESLRTSERKLRETEEKLQKLRTNIVALLQKVQEDIDINTDDELDAYIEDLITKGD
notes: MORC2, human, UniProt Q9Y6X9, residues 901-1032; The legend names no Trx tag on it, and it may be the same as the Trx-tagged m4; The methods say fragments carry a GPGS linker; Construct details are in Supplementary file 2; also called MORC2^901-1032
B13: Trx-tagged MORC2 901-1032 L958Q (domain or fragment, human, UniProt Q9Y6X9 901-1032, looked up)
chain: LSTNHETIDLLVQILRNCLRYFLPPSFPISKKQLSAMNSDELISFPLKEYFKQYEVGQQNLCNSYQSRADSRAKASEESLRTSERKLRETEEKLQKLRTNIVALLQKVQEDIDINTDDELDAYIEDLITKGD
notes: MORC2, human, UniProt Q9Y6X9, residues 901-1032 with L958Q; source: E. coli, purified
B14: Trx-901-975 (CC3 truncation) (domain or fragment, human, UniProt Q9Y6X9 901-975, looked up)
chain: LSTNHETIDLLVQILRNCLRYFLPPSFPISKKQLSAMNSDELISFPLKEYFKQYEVGLQNLCNSYQSRADSRAKA
notes: MORC2, human, UniProt Q9Y6X9, residues 901-975; The Trx tag points to the bacterial pET32m-type vector; Construct details are in Supplementary file 2; also called truncated CC3 constructs (residues 901-975); CC3 N-terminal region
B15: MORC2 CC3 domain (residues 901-1003) (domain or fragment, human, UniProt Q9Y6X9 901-1003, looked up)
chain: LSTNHETIDLLVQILRNCLRYFLPPSFPISKKQLSAMNSDELISFPLKEYFKQYEVGLQNLCNSYQSRADSRAKASEESLRTSERKLRETEEKLQKLRTNIVA
notes: MORC2, human, UniProt Q9Y6X9, residues 901-1003; Cloned in a modified pET32m vector (Trx-tag); Used unlabelled for SEC-SLS and uniformly 15N-labelled for the NMR titration; The methods say fragments carry a GPGS linker; also called MORC2^901-1003; coiled-coil 3; source: E. coli, purified (Ni-NTA, SEC); 15N-labelled from M9 medium for NMR
B16: MORC2 CTDΔCW (residues 537-1032) (domain or fragment, human, UniProt Q9Y6X9 537-1032, looked up)
chain: EASEQKQKVPLGTFRKDMKTQEEKQKQLTEKIRQQQEKLEALQKTTPIRSQADLKKLPLEVTTRPSTEEPVRRPQRPRSPPLPAVIRNAPSRPPSLPTPRPASQPRKAPVISSTPKLPALAAREEASTSRLLQPPEAPRKPANTLVKTASRPAPLVQQLSPSLLPNSKSPREVPSPKVIKTPVVKKTESPIKLSPATPSRKRSVAVSDEEEVEEEAERRKERCKRGRFVVKEEKKDSNELSDSAGEEDSADLKRAQKDKGLHVEVRVNREWYTGRVTAVEVGKHVVRWKVKFDYVPTDTTPRDRWVEKGSEDVRLMKPPSPEHQSLDTQQEGGEEEVGPVAQQAIAVAEPSTSECLRIEPDTTALSTNHETIDLLVQILRNCLRYFLPPSFPISKKQLSAMNSDELISFPLKEYFKQYEVGLQNLCNSYQSRADSRAKASEESLRTSERKLRETEEKLQKLRTNIVALLQKVQEDIDINTDDELDAYIEDLITKGD
notes: MORC2, human, UniProt Q9Y6X9, residues 537-1032; Bacterial constructs were made with MBP or Trx fusion proteins; Which one was used here, and whether it was kept, is in Supplementary file 2; source: Escherichia coli, purified

One series deals with the molecule itself. As to the kind of experiment: crystal structure; SeMet CC3 (901-1003); sitting drop, 0.1 M citric acid pH 3.5, 25% w/v PEG 3350, 16 °C; 3.1 Å.
B1: the binding result is “binds”.

Another series concerns the molecule itself. Briefly: SEC-MALS; size-exclusion chromatography with static light scattering (miniDawn); MORC2FL at 70 μM; 50 mM Tris-HCl pH 8.0, 1000 mM NaCl, 1 mM EDTA, 1 mM DTT; no ATP; also run with 601 DNA. On the technique in general: Size exclusion chromatography separates by hydrodynamic size, large species first.
For the protein B2, the “stoichiometry N” value amounted to 2.

The next series concerns the molecule itself. Briefly: SEC-MALS; size-exclusion chromatography with static light scattering (miniDawn); fragments at 70 μM; Superdex 200 increase or Superose 6 increase; 50 mM Tris-HCl pH 8.0, 150 mM NaCl, 1 mM EDTA, 1 mM DTT.
B3: the “stoichiometry N” value is 2. On to B4, for which the binding result was “binds”. Turning to B5, the binding result is “binds”.

For the protein B6, the “stoichiometry N” value amounted to 2.

As for B7, the binding result is reported as “binds”. Turning to B8, the binding result was “binds”.

With B9, the binding result was “binds”. Regarding B10, the binding result is recorded as “binds”.

Take B11: the binding result is listed as “binds”. B12: the “stoichiometry N” value came out at 2. B13: the binding result is “binds”.

On to B14, for which the “stoichiometry N” value was found to be 2. On the same count and under the same terms, the result for B15 reads 2. Same read-out and setting: under B16 stands 2.

As a reminder, the stoichiometry N is a count of units in the complex or per binding partner.
